The text below walks through data of patent US20260275312, “CRISPR NUCLEASE POLYPEPTIDES AND GENE EDITING SYSTEMS COMPRISING SUCH” (ARBOR BIOTECHNOLOGIES, INC., published 2026).

In series [1] the target is T1, Nuclease W S925R/E715R/A65R (synthetic construct, S925R,E715R,A65R).
T1 chain: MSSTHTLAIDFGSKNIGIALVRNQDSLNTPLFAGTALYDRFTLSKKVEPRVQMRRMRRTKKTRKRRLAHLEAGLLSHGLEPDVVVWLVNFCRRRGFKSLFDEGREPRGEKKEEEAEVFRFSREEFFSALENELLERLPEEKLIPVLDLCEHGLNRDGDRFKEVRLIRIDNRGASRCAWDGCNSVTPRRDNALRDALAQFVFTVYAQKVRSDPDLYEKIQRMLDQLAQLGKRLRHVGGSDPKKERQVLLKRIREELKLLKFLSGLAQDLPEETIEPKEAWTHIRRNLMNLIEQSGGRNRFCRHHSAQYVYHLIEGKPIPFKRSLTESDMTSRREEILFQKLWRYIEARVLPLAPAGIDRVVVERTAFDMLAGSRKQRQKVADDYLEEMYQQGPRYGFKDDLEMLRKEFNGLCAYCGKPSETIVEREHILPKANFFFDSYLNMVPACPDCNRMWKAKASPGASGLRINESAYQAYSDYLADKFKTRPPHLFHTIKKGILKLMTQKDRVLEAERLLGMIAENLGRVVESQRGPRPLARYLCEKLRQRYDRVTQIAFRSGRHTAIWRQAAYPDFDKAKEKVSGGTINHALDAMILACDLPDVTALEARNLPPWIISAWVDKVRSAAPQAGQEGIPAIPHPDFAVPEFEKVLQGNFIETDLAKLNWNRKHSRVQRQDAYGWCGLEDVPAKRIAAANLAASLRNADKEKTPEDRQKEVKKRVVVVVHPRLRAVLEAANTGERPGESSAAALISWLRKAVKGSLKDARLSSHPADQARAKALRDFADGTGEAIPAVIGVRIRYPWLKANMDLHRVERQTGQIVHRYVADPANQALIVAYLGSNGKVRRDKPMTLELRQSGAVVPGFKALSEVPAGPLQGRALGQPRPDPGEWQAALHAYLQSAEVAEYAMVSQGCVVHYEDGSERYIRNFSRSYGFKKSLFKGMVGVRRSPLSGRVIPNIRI
The series can be described thus: cell_activity; HEK293T; PAM AAA. The settings on record: tags: N-term SV40 NLS, XTEN linker + C-term nucleoplasmin NLS. The procedure:
Approximately 16 hours prior to transfection, 25,000 HEK293T cells in DMEM/10% FBS+Pen/Strep (D10 media) were plated into each well of a 96-well plate. On the day of transfection, the cells were 50-90% confluent. For each well to be transfected, a mixture of Lipofectamine 2000™ (ThermoFisher Scientific) and Opti-MEM™ (ThermoFisher Scientific) was prepared and incubated at room temperature for 5 minutes (Solution 1). After incubation, the Lipofectamine 2000™:Opti-MEM™ mixture was added to a separate mixture containing the CRISPR nuclease plasmid (NLS-tagged), RNA guide plasmid, and Opti-MEM™ (Solution 2). In the case of negative controls, the CRISPR nuclease plasmid was excluded. Solutions 1 and 2 were mixed by pipetting up and down, then incubated at room temperature for 25 minutes. Following incubation, the Solution 1 and 2 mixture was added dropwise to each well of a 96-well plate containing the cells. […]
Each Nuclease W variant was cloned as described in Example 2. […] For each target, indel ratios, referring to the percentage of NGS reads comprising indels, were calculated for the reference Nuclease W (SEQ ID NO: 1) and for each Nuclease W variant. The indel ratios shown in Table 5 were calculated as the average of two bioreplicates, each of which contained two technical replicates.

The next series concerns the target T2, Nuclease S (synthetic construct).
T2 chain: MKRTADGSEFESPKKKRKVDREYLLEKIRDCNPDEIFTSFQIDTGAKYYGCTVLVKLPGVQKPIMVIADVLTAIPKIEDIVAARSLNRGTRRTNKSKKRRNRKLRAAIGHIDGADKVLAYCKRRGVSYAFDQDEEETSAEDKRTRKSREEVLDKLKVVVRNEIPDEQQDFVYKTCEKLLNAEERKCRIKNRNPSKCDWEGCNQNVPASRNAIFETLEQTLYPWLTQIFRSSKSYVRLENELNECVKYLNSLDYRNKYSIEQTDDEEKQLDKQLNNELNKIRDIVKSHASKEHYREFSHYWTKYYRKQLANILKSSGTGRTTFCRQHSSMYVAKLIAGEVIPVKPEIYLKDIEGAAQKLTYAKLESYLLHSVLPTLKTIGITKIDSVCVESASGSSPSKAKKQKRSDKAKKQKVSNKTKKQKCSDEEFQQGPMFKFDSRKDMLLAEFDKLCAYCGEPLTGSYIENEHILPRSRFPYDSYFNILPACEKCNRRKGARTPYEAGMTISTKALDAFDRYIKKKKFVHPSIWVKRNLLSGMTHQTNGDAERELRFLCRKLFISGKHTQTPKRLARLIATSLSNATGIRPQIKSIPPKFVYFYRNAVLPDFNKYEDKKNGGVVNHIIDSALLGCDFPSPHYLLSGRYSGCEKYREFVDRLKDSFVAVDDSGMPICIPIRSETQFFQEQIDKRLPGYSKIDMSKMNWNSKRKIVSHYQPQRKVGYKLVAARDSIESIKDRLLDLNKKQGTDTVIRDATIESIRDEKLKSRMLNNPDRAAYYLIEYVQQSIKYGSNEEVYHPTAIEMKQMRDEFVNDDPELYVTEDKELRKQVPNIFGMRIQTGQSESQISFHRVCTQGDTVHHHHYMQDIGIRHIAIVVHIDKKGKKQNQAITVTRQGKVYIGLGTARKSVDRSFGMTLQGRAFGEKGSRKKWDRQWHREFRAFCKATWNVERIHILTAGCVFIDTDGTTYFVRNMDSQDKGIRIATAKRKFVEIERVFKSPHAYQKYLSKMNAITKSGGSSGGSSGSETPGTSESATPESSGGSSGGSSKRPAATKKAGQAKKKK
The series can be described thus: cell_activity; HEK293T; PAM AACC 3'; very low. The settings on record: tags: N-term SV40 NLS, XTEN linker + C-term nucleoplasmin NLS.

B1: W EMX1-T5 RNA guide ; EMX1-T5 target (W) (ssRNA ; dsDNA)
RNA: UAAACUACAGUGGUGCCUGGGUUUCAGCUACCCUGAGUUUCUCAACUCCGUUGAGACUUCCUCAGGUUCAAGCUGAAAAGAGCAUCUGUCCGGAAGGACCACUCCGGGUUAGGGCAGACCCGGCUCUUGGGCUUCCUUGGUCUUUGACUCUGGAGGAAACCUUCCGGCGUGUCGCAAGACAAGAUGUGAGCCUG
DNA 1: TAAACTACAGTGGTGCCTGG
DNA 2: CCAGGCACCACTGTAGTTTA
B1: in series [1], the binding signal was 4.84 fold indel vs reference.

B2: S AAVS1-T7 RNA guide ; AAVS1-T7 target (S) (ssRNA ; dsDNA)
RNA: GGCUAUAAUCCAUGCUGACCGUUGUAUUCGGAUGGGAGUAAAAGGUUGAGUACACCUGGAAACAAAACGACAUAAAGGUGUUCUCCCAUCUGUGUACAAAGAGCAGAUAUAUGAGUUGAUAAGUAAUAUGUUGCACGUAUGGACUUUGACAGUCUGUACCUCUGCGUGAAAGACAUAUUGCGUUAUUCAUAUAUCUGUGAGUCUGUUCUAAAUUUAAAGGUUUAGGGAA
DNA 1: GGCTATAATCCATGCTGACC
DNA 2: GGTCAGCATGGATTATAGCC
On to B2, for which the activity in the series with Nuclease S was determined as 0.0048 indel ratio.
